Test results taken from patent US20250074980A1 (BRIGHAM AND WOMEN S HOSPITAL, published 2025).
Positions count from the first letter of the chain named. Names and notes keep the numbering of the source. Values joined by “and” are separate entries in the source; they are usually repeats but may differ in a detail not shown here. Identical values can stand only once.

T1: CEACAM6 on transfected HeLa cells (human, UniProt P40199 35-320)
T1 construct: whole, on cells; also called HeLa-CEACAM6; HeLa C6
T1 sequence (looked up): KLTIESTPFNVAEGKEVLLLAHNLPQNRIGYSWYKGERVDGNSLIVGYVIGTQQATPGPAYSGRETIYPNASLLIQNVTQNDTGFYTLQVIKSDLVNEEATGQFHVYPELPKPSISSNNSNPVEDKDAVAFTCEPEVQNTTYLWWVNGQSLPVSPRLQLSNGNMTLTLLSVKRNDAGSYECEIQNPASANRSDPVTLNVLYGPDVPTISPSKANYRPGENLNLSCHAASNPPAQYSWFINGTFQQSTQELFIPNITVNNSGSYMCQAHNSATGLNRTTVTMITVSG

T2: His-tagged CEACAM1 (human, UniProt P13688 35-428)
T2 construct: 45 kDa SPR analyte; also called CEACAM1-HIS; CEACAM1 analyte
T2 sequence: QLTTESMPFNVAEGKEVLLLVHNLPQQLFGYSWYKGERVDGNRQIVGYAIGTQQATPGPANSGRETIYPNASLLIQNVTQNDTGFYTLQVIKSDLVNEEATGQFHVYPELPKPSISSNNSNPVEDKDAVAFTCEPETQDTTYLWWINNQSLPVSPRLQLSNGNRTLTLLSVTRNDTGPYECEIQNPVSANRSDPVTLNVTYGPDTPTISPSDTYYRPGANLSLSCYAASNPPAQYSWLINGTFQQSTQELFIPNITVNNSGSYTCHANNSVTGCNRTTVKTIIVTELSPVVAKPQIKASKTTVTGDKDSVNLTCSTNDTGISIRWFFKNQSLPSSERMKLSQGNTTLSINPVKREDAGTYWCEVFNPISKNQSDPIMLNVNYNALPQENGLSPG

T3: CEACAM3 on transfected HeLa cells (human, UniProt P40198 35-252)
T3 construct: whole, on cells; also called HeLa-CEACAM3; HeLa C3
T3 sequence (looked up): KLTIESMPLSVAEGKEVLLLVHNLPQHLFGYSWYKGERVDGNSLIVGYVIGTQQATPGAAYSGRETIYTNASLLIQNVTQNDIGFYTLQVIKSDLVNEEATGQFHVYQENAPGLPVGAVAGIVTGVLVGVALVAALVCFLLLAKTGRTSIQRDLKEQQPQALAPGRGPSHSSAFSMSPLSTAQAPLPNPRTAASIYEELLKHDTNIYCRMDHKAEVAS

T4: CEACAM8 on transfected HeLa cells (human, UniProt P31997 35-320)
T4 construct: whole, on cells; also called HeLa-CEACAM8; HeLa C8
T4 sequence (looked up): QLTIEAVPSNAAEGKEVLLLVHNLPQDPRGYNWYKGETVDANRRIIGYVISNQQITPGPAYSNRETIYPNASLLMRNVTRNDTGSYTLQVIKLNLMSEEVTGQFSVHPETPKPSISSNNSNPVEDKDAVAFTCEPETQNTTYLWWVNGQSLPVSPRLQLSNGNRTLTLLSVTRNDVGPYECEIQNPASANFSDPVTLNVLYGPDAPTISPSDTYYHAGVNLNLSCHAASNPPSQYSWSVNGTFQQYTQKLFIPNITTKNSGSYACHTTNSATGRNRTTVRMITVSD

B1: VH1/Vκ2 (antibody, IgG4, V domains shown)
VH: EVQLLESGGGLVQPGGSLRLSCAASGFIFSSHGMSWVRQAPGKGLEWVATISSGGTYTYYPDSVKGRFTISRDNSKNTLYLQMNSLKAEDTAMYYCARHDFDYDAAWFAYWGQGTLVTVSS
VL: EIVLTQSPATLSLSPGERATLSCRANSSVSYMYWYQQKPGQAPRPWIYLTSNRATGVPARFSGSGSGTDYTLTISSLEPEDFATYYCQQWSSNPPTFGQGTKLEIK
notes: IgG4 (S241P), kappa
B2: VH3/Vκ1 (antibody, IgG4, V domains shown)
VH: B1 VH with P61A, K87R
VL: B1 VL with E1Q, T10L, L21M, R24S, Q36R, R44K, R53L, T55S, P79A
notes: IgG4 (S241P), kappa
B3: VH2/Vκ2 (antibody, IgG4, V domains shown)
VH: B1 VH with K87R
VL: B1 VL
notes: IgG4 (S241P), kappa
B4: VH2/Vκ7 (antibody, IgG4, V domains shown)
VH: B1 VH with K87R
VL: B1 VL with Y70F
notes: IgG4 (S241P), kappa
B5: VH1/Vκ12 (antibody, IgG4, V domains shown)
VH: B1 VH
VL: B1 VL with W46L, V57I
notes: IgG4 (S241P), kappa
B6: VH1/Vκ9 (antibody, IgG4, V domains shown)
VH: B1 VH
VL: B1 VL with W46L
notes: IgG4 (S241P), kappa
B7: VH1/Vκ7 (antibody, IgG4, V domains shown)
VH: B1 VH
VL: B1 VL with Y70F
notes: IgG4 (S241P), kappa
B8: VH2/Vκ8 (antibody, IgG4, V domains shown)
VH: B1 VH with K87R
VL: B1 VL with T84V
notes: IgG4 (S241P), kappa
B9: VH1/Vκ8 (antibody, IgG4, V domains shown)
VH: B1 VH
VL: B1 VL with T84V
notes: IgG4 (S241P), kappa
B10: VH4/Vκ1 (antibody, IgG4, V domains shown)
VH: B1 VH with A49S, P61A, K87R, M93V
VL: B1 VL with E1Q, T10L, L21M, R24S, Q36R, R44K, R53L, T55S, P79A
notes: IgG4 (S241P), kappa
B11: VH1/Vκ10 (antibody, IgG4, V domains shown)
VH: B1 VH
VL: B1 VL with V57I, Y70F
notes: IgG4 (S241P), kappa

Each binder was assayed against T1, CEACAM6 on transfected HeLa cells (assay: flow cytometry, HeLa-CEACAM6 transfectants, % positive cells).
Procedure: Binding selectivity for CEACAM1 was tested for the 24 humanized antibody variants that bound to CEACAM1 (see Table 3), as well as the chimeric control antibody VH0/Vκ0, by flow cytometry on HeLa cells transfected with CEACAM1, 3, 5, 6 and 8. […] There was no evidence of any staining of the HeLa-CEACAM3 or HeLa-CEACAM8 transfectants. […] Due to its favorable affinity to and selectivity for CEACAM1 as well as its favorable expression level, VH1/Vκ8 was chosen as the framework for affinity maturation.

Row | binding result | Binder
1 | no binding | B1
2 | no binding | B2
3 | no binding | B3
4 | no binding | B4
5 | no binding | B5
6 | no binding | B6
7 | no binding | B7
8 | no binding | B8
9 | no binding | B9
10 | no binding | B10
11 | no binding | B11

These binders were tested against T2, His-tagged CEACAM1 (assay: SPR multi-cycle, IgG captured).
Procedure: (§1) As an alternative approach to assess the binding of the 36 antibody combinations and the three control antibodies to CEACAM1, a kinetic analysis was performed on a Biacore T200 (serial no. 1909913) running Biacore T200 Evaluation Software V2.0.1 (Uppsala, Sweden). All experiments were run at 25° C. with HBS-P+ running buffer (pH 7.4) (GE Healthcare, cat. no. BR100671). All kinetic experiments were performed using His-tagged CEACAM1 as the analyte. For all experiments, antibodies were immobilized onto a Series S Protein A sensor chip surface. For kinetic experiments, the amount of immobilized/captured ligand was limited to avoid mass transfer effects at the surface of the chip with the surface ideally having an analyte binding level (Rₘₐₓ) of 50-150 RUs. Using a MW of 45 kDa for the CEACAM1 analyte, 150 kDa for the antibody ligand (estimated value for IgG), 50 RU for Rmax and the stoichiometry (Sm) as 2 due to the ability of each antibody to bind 2 target molecules, a target response level of ˜75 RUs was set for capture of all the sample antibodies.
The signal from the reference channel Fc1 was subtracted from that of Fc2, Fc3 and Fc4 to correct for differences in non-specific binding to a reference surface, a global Rmax parameter was used in the 1-to-1 binding model. The relative Kp compared to […] was calculated by dividing the Kp of the humanized CEACAM antibody variants by that of the chimeric antibody VH0/Vκ0 on the same chip. A summary of the averaged relative Kp obtained for the 12 antibody combinations analyzed using multi cycle kinetics can be found in Table 5.

Row | Kd | average relative KD to VH0/Vκ0 | koff | kon | relative KD to VH0/Vκ0 | Binder
12 | 190 nM | 3.4 | 0.0503 s⁻¹ | 265000 M⁻¹ s⁻¹ | 3.4 | B1
13 | 71 nM | 2.3 | 0.0258 s⁻¹ | 362000 M⁻¹ s⁻¹ | 2.4 | B4
14 | 65 nM | 2.2 | 0.0268 s⁻¹ | 411000 M⁻¹ s⁻¹ | 2.2 | B5
15 | 220 nM | 4 | 0.0504 s⁻¹ | 229000 M⁻¹ s⁻¹ | 4 | B6
16 | 119 nM and 69 nM | 2 | 0.0492 s⁻¹ and 0.0352 s⁻¹ | 415000 M⁻¹ s⁻¹ and 510000 M⁻¹ s⁻¹ |  | B7
17 | 125 nM | 2.3 | 0.0417 s⁻¹ | 334000 M⁻¹ s⁻¹ | 2.3 | B8
18 | 95 nM | 1.8 | 0.0406 s⁻¹ | 430000 M⁻¹ s⁻¹ | 1.8 | B9
19 | 180 nM | 3.2 | 0.0511 s⁻¹ | 284000 M⁻¹ s⁻¹ | 3.2 | B11

The binders below were run against T2, His-tagged CEACAM1 (assay: SPR single-cycle, IgG captured).
Procedure: as §1
Single cycle analysis of the 36 antibody combinations and the three control antibodies was performed on purified antibodies (Vκ1 to Vκ6 variants) or on the supernatants of the transiently transfected HEK EBNA cells (Vκ7 to Vκ12 variants). In some instances, where supernatant was not available, purified chimeric antibody VH0/Vκ0 was spiked into HEK EBNA culture medium to use as a positive control. Antibodies were diluted in HBS-P+ to a concentration of 1 μg/ml (as determined by an IgG quantitation ELISA). At the start of each cycle, antibodies were loaded onto Fc2, Fc3 and Fc4 of a protein A chip and IgG captured at a flow rate of 8 μl/min to give an RU of ˜75. The surface was then allowed to stabilize. Single cycle kinetic data was obtained at a flow rate of 50 μl/min to minimize any potential mass transfer effects. Multiple repeats of the chimeric antibody VH0/Vκ0 were performed to check the stability of the surface and analyte over the kinetic cycles. The signal from the reference channel Fc1 (no antibody) was subtracted from that of Fc2, Fc3 and Fc4 to correct for differences in non-specific binding to a reference surface. A 5 point 2-fold dilution range from 3.125 to 50 nM CEACAM1 without regeneration between each concentration was used.

Row | Kd [nM] | relative KD to VH0/Vκ0 | Binder
20 | 134 | 3.2 | B1
21 | 135 | 3.2 | B2
22 | 98 | 2.3 | B3
23 | 152 | 3.7 | B4
24 | 143 | 3.5 | B5
25 | 142 | 3.4 | B6
26 | 109 | 2.6 | B7
27 | 125 | 3 | B8
28 | 131 | 3.2 | B9
29 | 99 | 2.4 | B10
30 | 146 | 3.5 | B11

What follows are binders tested against T3, CEACAM3 on transfected HeLa cells (assay: flow cytometry, transfected HeLa).
Procedure, shortened: (§2)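 Flow cytometry was done on HeLa cells stably expressing single CEACAM family members, cultured in DMEM with 10% fetal bovine serum at 37° C, 5.0% CO₂, and stained with the test antibody, then a fluorochrome-conjugated isotype-specific secondary antibody, with DAPI for viability. Staining of each transfectant serves as the readout of binding selectivity.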

Row | binding result | Binder
31 | no binding | B1
32 | no binding | B2
33 | no binding | B3
34 | no binding | B4
35 | no binding | B5
36 | no binding | B6
37 | no binding | B7
38 | no binding | B8
39 | no binding | B9
40 | no binding | B10
41 | no binding | B11

Each binder was assayed against T4, CEACAM8 on transfected HeLa cells (assay: flow cytometry, transfected HeLa).
Procedure, shortened: as §2

Row | binding result | Binder
42 | no binding | B1
43 | no binding | B2
44 | no binding | B3
45 | no binding | B4
46 | no binding | B5
47 | no binding | B6
48 | no binding | B7
49 | no binding | B8
50 | no binding | B9
51 | no binding | B10
52 | no binding | B11
